# Paper PMC10920655, “Identification and characterization of CIM-1, a carbapenemase that adds to the family of resistance factors against last resort antibiotics” (Communications Biology, 2024)
# What was measured:
# [1] = test system: T1, E. coli C41(DE3) with pET41a(+); assay: microbe, parasite or virus in culture; design: species or system C. indologenes 3362; E. coli C41(DE3); Broth microdilution MIC, ISO 20776-1/EUCAST, cation-adjusted Mueller Hinton broth, after IPTG induction; settings: Escherichia coli; empty vector pET41a(+), IPTG induced
# T1 construct: C41(DE3) empty vector pET41a(+), control
# Description: (§1) The in vitro minimum inhibitory concentration (MIC) of β-lactams including penicillins, cephalosporins, and carbapenems in C. indologenes 3362 and E. coli C41(DE3) carrying different constructs were determined using the broth microdilution assay according to the International Standard ISO 20776-1 as recommended by EUCAST (the European Committee on Antimicrobial Susceptibility Testing). Briefly, bacterial cultures were grown aerobically at 37 °C to an OD600 0.4–0.6 in the presence of 25 μg/mL kanamycin, when necessary, before 1 mM IPTG (isopropyl-β-d-thiogalactopyranoside) was added. The induction was allowed for 2 h at 37 °C before the bacterial culture was diluted to 4 × 10^6 CFU/mL, and the microbroth dilution assays were performed. Cation-adjusted Mueller Hinton (CAMH) broth was used. All assays were repeated at least four times on four different days with different batches of cells.
# C. indologenes #3362 = test system: T2, C. indologenes #3362; assay: microbe, parasite or virus in culture; design: species or system C. indologenes 3362; E. coli C41(DE3); Broth microdilution MIC, ISO 20776-1/EUCAST, cation-adjusted Mueller Hinton broth, after IPTG induction; settings: Chryseobacterium indologenes; native isolate carrying IND-2 and CIM-1
# T2 construct: 3362
# Description: as §1
# [2] = test system: C[C@@H](O)[C@H]1C(=O)N2C(C(=O)O)=C(S[C@@H]3CN[C@H](C(=O)Nc4cccc(C(=O)O)c4)C3)[C@H](C)[C@H]12; assay: purified protein; settings: 50 mM HEPES pH 7.0, 10 μM ZnSO4, 25 ± 2 °C, 100 nM enzyme, 25.0 °C
# [3] = test system: C[C@@H](O)[C@H]1C(=O)N2C(C(=O)O)=C(SCCN=CN)C[C@H]12; assay: purified protein; settings: 50 mM HEPES pH 7.0, 10 μM ZnSO4, 25 ± 2 °C, 100 nM enzyme, 25.0 °C
# [4] = test system: O=C(Cc1cccs1)N[C@@H]1C(=O)N2C(C(=O)O)=C(/C=C/c3ccc([N+](=O)[O-])cc3[N+](=O)[O-])CS[C@H]12; assay: purified protein; settings: 50 mM HEPES pH 7.0, 10 μM ZnSO4, 25 ± 2 °C, 100 nM enzyme, 25.0 °C
# IND-2ΔSig [5] = target: T3, IND-2ΔSig (Chryseobacterium indologenes, UniProt Q9ETN2); assay: steady-state hydrolysis, UV absorbance […] nm, plate reader; format: biochemical; settings: read-out: Km (μM) / IND-2ΔSig; 50 mM HEPES pH 7.0, 10 μM ZnSO4, 25 ± 2 °C, 100 nM enzyme
# T3 construct: gene blaIND-2b
# IND-2ΔSig [6] = target: T3, IND-2ΔSig; assay: steady-state hydrolysis, UV absorbance, plate reader; settings: read-out: Km (μM) / IND-2ΔSig; 50 mM HEPES pH 7.0, 10 μM ZnSO4, 25 ± 2 °C, 100 nM enzyme
# IND-2ΔSig [7] = target: T3, IND-2ΔSig; assay: steady-state hydrolysis, UV absorbance […] or […] nm, plate reader; settings: read-out: Km (μM) / IND-2ΔSig; 50 mM HEPES pH 7.0, 10 μM ZnSO4, 25 ± 2 °C, 100 nM enzyme
# NDM-4ΔSig = target: T4, NDM-4ΔSig (Klebsiella pneumoniae, UniProt C7C422, M154L); assay: steady-state hydrolysis, absorbance […] nm, plate reader; format: biochemical; settings: read-out: Km (μM) / NDM-4ΔSig; 50 mM HEPES pH 7.0, 10 μM ZnSO4, 25 ± 2 °C, 100 nM enzyme
# T4 construct: gene blaNDM-1
# [8] = test system: CO/N=C(\C(=O)N[C@@H]1C(=O)N2C(C(=O)[O-])=C(C[N+]3(C)CCCC3)CS[C@H]12)c1csc(N)n1; assay: purified protein; settings: 50 mM HEPES pH 7.0, 10 μM ZnSO4, 25 ± 2 °C, 100 nM enzyme, 25.0 °C
# [9] = test system: C[C@@H](O)[C@H]1C(=O)N2C(C(=O)O)=C(S[C@@H]3CN[C@H](C(=O)N(C)C)C3)[C@H](C)[C@H]12; assay: purified protein; settings: 50 mM HEPES pH 7.0, 10 μM ZnSO4, 25 ± 2 °C, 100 nM enzyme, 25.0 °C
# [10] = test system: C[C@@H](O)[C@H]1C(=O)N2C(C(=O)O)=C(S[C@@H]3CN[C@H](CNS(N)(=O)=O)C3)[C@H](C)[C@H]12; assay: purified protein; settings: 50 mM HEPES pH 7.0, 10 μM ZnSO4, 25 ± 2 °C, 100 nM enzyme, 25.0 °C
# Description: steady-state hydrolysis, UV absorbance, plate reader on CIM-1ΔSig
# [11] = test system: CC(C)(O/N=C(\C(=O)N[C@@H]1C(=O)N2C(C(=O)[O-])=C(C[n+]3ccccc3)CS[C@H]12)c1csc(N)n1)C(=O)O; assay: purified protein; settings: 50 mM HEPES pH 7.0, 10 μM ZnSO4, 25 ± 2 °C, 100 nM enzyme, 25.0 °C
# [12] = test system: CO/N=C(\C(=O)N[C@@H]1C(=O)N2C(C(=O)[O-])=C(C[N+]3(C)CCCC3)CS[C@H]12)c1csc(N)n1; assay: purified protein; format: biochemical, Klebsiella pneumoniae; settings: 50 mM HEPES pH 7.0, 10 μM ZnSO4, 25 ± 2 °C, 100 nM enzyme, 25.0 °C
# [13] = test system: C[C@@H](O)[C@H]1C(=O)N2C(C(=O)O)=C(S[C@@H]3CN[C@H](C(=O)N(C)C)C3)[C@H](C)[C@H]12; assay: purified protein; format: biochemical, Klebsiella pneumoniae; settings: 50 mM HEPES pH 7.0, 10 μM ZnSO4, 25 ± 2 °C, 100 nM enzyme, 25.0 °C
# [14] = test system: C[C@@H](O)[C@H]1C(=O)N2C(C(=O)O)=C(SCCN=CN)C[C@H]12; assay: purified protein; format: biochemical, Klebsiella pneumoniae; settings: 50 mM HEPES pH 7.0, 10 μM ZnSO4, 25 ± 2 °C, 100 nM enzyme, 25.0 °C
# [15] = test system: CC(C)(O/N=C(\C(=O)N[C@@H]1C(=O)N2C(C(=O)[O-])=C(C[n+]3ccccc3)CS[C@H]12)c1csc(N)n1)C(=O)O; assay: purified protein; format: biochemical, Klebsiella pneumoniae; settings: 50 mM HEPES pH 7.0, 10 μM ZnSO4, 25 ± 2 °C, 100 nM enzyme, 25.0 °C
# [16] = test system: C[C@@H](O)[C@H]1C(=O)N2C(C(=O)O)=C(S[C@@H]3CN[C@H](C(=O)Nc4cccc(C(=O)O)c4)C3)[C@H](C)[C@H]12; assay: steady-state hydrolysis, UV absorbance, plate reader; format: biochemical, Klebsiella pneumoniae; settings: 50 mM HEPES pH 7.0, 10 μM ZnSO4, 25 ± 2 °C, 100 nM enzyme, 25.0 °C
# Excerpt: (§2) steady-state hydrolysis, UV absorbance, plate reader on NDM-4ΔSig
# [17] = test system: C[C@@H](O)[C@H]1C(=O)N2C(C(=O)O)=C(S[C@@H]3CN[C@H](CNS(N)(=O)=O)C3)[C@H](C)[C@H]12; assay: as above; format: biochemical, Klebsiella pneumoniae; settings: 50 mM HEPES pH 7.0, 10 μM ZnSO4, 25 ± 2 °C, 100 nM enzyme, 25.0 °C
# Excerpt: as §2
# T3 sequence (Q9ETN2 entry or part of it, stated change not applied): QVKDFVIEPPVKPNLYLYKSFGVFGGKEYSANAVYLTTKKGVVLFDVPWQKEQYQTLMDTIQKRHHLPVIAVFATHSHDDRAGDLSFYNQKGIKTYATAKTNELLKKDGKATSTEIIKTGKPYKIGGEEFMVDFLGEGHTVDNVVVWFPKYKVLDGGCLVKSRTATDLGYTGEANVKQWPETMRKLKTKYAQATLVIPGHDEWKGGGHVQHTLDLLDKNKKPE
# T4 sequence (C7C422 26-270 M154L): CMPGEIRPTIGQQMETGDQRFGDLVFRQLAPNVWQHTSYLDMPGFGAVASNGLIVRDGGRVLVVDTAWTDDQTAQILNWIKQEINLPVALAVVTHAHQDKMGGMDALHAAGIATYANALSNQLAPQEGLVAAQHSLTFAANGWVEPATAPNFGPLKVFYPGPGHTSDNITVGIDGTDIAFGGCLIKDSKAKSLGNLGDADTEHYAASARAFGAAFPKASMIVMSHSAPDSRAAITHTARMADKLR
molecule,measurement,setting,value
CO/N=C(\C(=O)N[C@@H]1C(=O)N2C(C(=O)[O-])=C(C[N+]3(C)CCCC3)CS[C@H]12)c1csc(N)n1 [Cefepime],MIC,[1],0.031 µg/mL
same,MIC,C. indologenes #3362,2 µg/mL
C[C@@H](O)[C@H]1C(=O)N2C(C(=O)O)=C(S[C@@H]3CN[C@H](C(=O)Nc4cccc(C(=O)O)c4)C3)[C@H](C)[C@H]12 [Ertapenem],MIC,[1],0.016 µg/mL
same,MIC,C. indologenes #3362,64 µg/mL
IND-2ΔSig (Chryseobacterium indologenes),Km,[2],1069 ± 105 µM
same,kcat,[2],127 s⁻¹
same,kcat/Km,[2],120000 M⁻¹ s⁻¹
same,Km,[3],728 ± 102 µM
same,kcat,[3],208 s⁻¹
same,kcat/Km,[3],290000 M⁻¹ s⁻¹
same,Km,[4],113 ± 6.9 µM
same,kcat,[4],78 s⁻¹
same,kcat/Km,[4],680000 M⁻¹ s⁻¹
CC(C)(O/N=C(\C(=O)N[C@@H]1C(=O)N2C(C(=O)[O-])=C(C[n+]3ccccc3)CS[C@H]12)c1csc(N)n1)C(=O)O [Ceftazidime],Km,IND-2ΔSig [5],> 1000 µM
same,MIC,[1],0.125 µg/mL
same,MIC,C. indologenes #3362,16 µg/mL
C[C@@H](O)[C@H]1C(=O)N2C(C(=O)O)=C(S[C@@H]3CN[C@H](CNS(N)(=O)=O)C3)[C@H](C)[C@H]12 [Doripenem],Km,IND-2ΔSig [6],> 1000 µM
same,MIC,[1],0.063 µg/mL
same,MIC,C. indologenes #3362,128 µg/mL
C[C@@H](O)[C@H]1C(=O)N2C(C(=O)O)=C(S[C@@H]3CN[C@H](C(=O)N(C)C)C3)[C@H](C)[C@H]12 [Meropenem],Km,IND-2ΔSig [7],> 1000 µM
same,MIC,[1],0.031 µg/mL
same,MIC,C. indologenes #3362,128 µg/mL
CC1(C)S[C@@H]2[C@H](NC(=O)[C@H](N)c3ccccc3)C(=O)N2[C@H]1C(=O)O [Ampicillin],MIC,[1],4 µg/mL
same,MIC,C. indologenes #3362,512 µg/mL
O=C(Cc1cccs1)N[C@@H]1C(=O)N2C(C(=O)O)=C(/C=C/c3ccc([N+](=O)[O-])cc3[N+](=O)[O-])CS[C@H]12 [Nitrocefin],Km,NDM-4ΔSig,11 ± 1.8 µM
CO[C@@]1(NC(=O)Cc2cccs2)C(=O)N2C(C(=O)O)=C(COC(N)=O)CS[C@@H]21 [*Cefoxitin (2nd)],MIC,[1],0.5 µg/mL
same,MIC,C. indologenes #3362,32 µg/mL
C[C@H]1[C@H](NC(=O)/C(=N\OC(C)(C)C(=O)O)c2csc(N)n2)C(=O)N1S(=O)(=O)O [Aztreonam],MIC,[1],< 0.02 µg/mL
same,MIC,C. indologenes #3362,> 512 µg/mL
Cc1nnc(SCC2=C(C(=O)O)N3C(=O)[C@@H](NC(=O)Cn4cnnn4)[C@H]3SC2)s1 [*Cefazolin (1st)],MIC,[1],2 µg/mL
same,MIC,C. indologenes #3362,256 µg/mL
C[C@@H](O)[C@H]1C(=O)N2C(C(=O)O)=C(SCCN=CN)C[C@H]12 [Imipenem],MIC,[1],0.5 µg/mL
same,MIC,C. indologenes #3362,128 µg/mL
CIM-1ΔSig (Chryseobacterium indologenes),Km,[2],91 ± 11 µM
same,kcat,[2],9.2 s⁻¹
same,kcat/Km,[2],100000 M⁻¹ s⁻¹
same,Km,[8],538 ± 56 µM
same,kcat,[8],15.3 s⁻¹
same,kcat/Km,[8],28000 M⁻¹ s⁻¹
same,Km,[9],143 ± 19 µM
same,kcat,[9],15 s⁻¹
same,kcat/Km,[9],100000 M⁻¹ s⁻¹
same,Km,[10],175 ± 24 µM
same,kcat,[10],21 s⁻¹
same,kcat/Km,[10],120000 M⁻¹ s⁻¹
same,Km,[3],94 ± 7 µM
same,kcat,[3],8.5 s⁻¹
same,kcat/Km,[3],90000 M⁻¹ s⁻¹
same,Km,[11],324 ± 42 µM
same,kcat,[11],30 s⁻¹
same,kcat/Km,[11],93000 M⁻¹ s⁻¹
same,Km,[4],33 ± 6 µM
same,kcat,[4],2.8 s⁻¹
same,kcat/Km,[4],85000 M⁻¹ s⁻¹
NDM-4ΔSig (Klebsiella pneumoniae; M154L),Km,[12],136 ± 16 µM
same,kcat,[12],5.4 s⁻¹
same,kcat/Km,[12],40000 M⁻¹ s⁻¹
same,Km,[13],163 ± 22 µM
same,kcat,[13],25 s⁻¹
same,kcat/Km,[13],150000 M⁻¹ s⁻¹
same,Km,[14],151 ± 22 µM
same,kcat,[14],31 s⁻¹
same,kcat/Km,[14],210000 M⁻¹ s⁻¹
same,Km,[15],93 ± 14 µM
same,kcat,[15],6.3 s⁻¹
same,kcat/Km,[15],68000 M⁻¹ s⁻¹
same,Km,[16],159 ± 22 µM
same,kcat,[16],17 s⁻¹
same,kcat/Km,[16],110000 M⁻¹ s⁻¹
same,Km,[17],253 ± 19 µM
same,kcat,[17],51 s⁻¹
same,kcat/Km,[17],200000 M⁻¹ s⁻¹
